# Ends that are not written are not given here. Peptide text beside a SMILES is read from it. * marks the point of attachment. Biotin = O=C1N[C@H]2[C@H](CS[C@H]2CCCCC(=O)*)N1
# Legend:
# Experiment in all cases: G' assay (10 uM PL peptide), results of TABLE 7 and TABLE 12
# Format in all cases: binding
# [1] = target: T1, PDZ protein (GST-PDZ fusion) (Homo sapiens, UniProt O00560); details: PDZ hSyntenin, PDZ Domain 1
# T1 construct: made in house; host or cells: E. coli (DH5alpha, BL21 or JM109)
# T1 sequence (O00560 1-298): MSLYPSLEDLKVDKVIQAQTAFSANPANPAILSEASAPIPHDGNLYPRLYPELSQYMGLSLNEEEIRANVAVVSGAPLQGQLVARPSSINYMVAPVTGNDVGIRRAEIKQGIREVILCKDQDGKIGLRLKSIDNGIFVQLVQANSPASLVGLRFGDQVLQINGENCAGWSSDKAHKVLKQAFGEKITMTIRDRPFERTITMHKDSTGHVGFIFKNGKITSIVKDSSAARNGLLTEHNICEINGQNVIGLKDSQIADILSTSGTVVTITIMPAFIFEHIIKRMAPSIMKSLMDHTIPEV
# Outline: (§1)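 Biotin-PL peptide (N-term label), 10 uM vs GST-PDZ; protein 5 ug/ml by default. A450 nm binned: 1 = 0-1, 2 = 1-2, 3 = 2-3, 4 = 3-4, 5 = >4 on >2 repeats, 0 = no binding.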
# [2] = target: T2, PDZ protein (GST-PDZ fusion) (Homo sapiens, UniProt O95049)
# T2 construct: made in house; host or cells: E. coli (DH5alpha, BL21 or JM109)
# T2 sequence (O95049 1-919): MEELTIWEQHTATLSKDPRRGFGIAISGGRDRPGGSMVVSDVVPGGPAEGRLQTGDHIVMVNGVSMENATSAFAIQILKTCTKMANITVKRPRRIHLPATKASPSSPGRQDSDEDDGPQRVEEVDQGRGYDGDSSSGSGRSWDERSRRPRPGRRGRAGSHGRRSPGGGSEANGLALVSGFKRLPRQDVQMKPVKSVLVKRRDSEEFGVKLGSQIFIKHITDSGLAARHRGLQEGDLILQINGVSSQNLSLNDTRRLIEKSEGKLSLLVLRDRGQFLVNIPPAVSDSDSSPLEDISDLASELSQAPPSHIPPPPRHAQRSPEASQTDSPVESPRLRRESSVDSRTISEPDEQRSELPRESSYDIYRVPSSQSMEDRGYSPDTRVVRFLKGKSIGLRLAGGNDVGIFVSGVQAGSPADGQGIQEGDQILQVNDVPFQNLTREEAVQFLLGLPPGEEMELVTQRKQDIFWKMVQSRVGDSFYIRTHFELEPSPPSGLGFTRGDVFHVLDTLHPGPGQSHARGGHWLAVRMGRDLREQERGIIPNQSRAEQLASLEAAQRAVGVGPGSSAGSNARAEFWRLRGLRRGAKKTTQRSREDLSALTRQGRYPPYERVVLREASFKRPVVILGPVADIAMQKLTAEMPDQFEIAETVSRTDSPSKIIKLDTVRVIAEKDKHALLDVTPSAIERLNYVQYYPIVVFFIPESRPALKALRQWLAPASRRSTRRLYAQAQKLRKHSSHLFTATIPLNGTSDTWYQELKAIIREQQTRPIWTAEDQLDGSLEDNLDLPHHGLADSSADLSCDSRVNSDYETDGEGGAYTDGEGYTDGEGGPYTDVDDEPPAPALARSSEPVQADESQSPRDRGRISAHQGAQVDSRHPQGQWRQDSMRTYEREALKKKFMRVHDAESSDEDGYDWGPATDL
# Outline: as §1
# [3] = target: T3, PDZ protein (GST-PDZ fusion) (Homo sapiens, UniProt P55196); details: PDZ AF6, PDZ Domain 1
# T3 construct: made in house; host or cells: E. coli (DH5alpha, BL21 or JM109)
# Outline: as §1
# [4] = target: T4, PDZ protein (GST-PDZ fusion) (Homo sapiens, UniProt Q9NR12); details: PDZ ENIGMA, PDZ Domain 1
# T4 construct: made in house; host or cells: E. coli (DH5alpha, BL21 or JM109)
# Outline: as §1
# T4 sequence (Q9NR12 whole entry, the tested form may be a part): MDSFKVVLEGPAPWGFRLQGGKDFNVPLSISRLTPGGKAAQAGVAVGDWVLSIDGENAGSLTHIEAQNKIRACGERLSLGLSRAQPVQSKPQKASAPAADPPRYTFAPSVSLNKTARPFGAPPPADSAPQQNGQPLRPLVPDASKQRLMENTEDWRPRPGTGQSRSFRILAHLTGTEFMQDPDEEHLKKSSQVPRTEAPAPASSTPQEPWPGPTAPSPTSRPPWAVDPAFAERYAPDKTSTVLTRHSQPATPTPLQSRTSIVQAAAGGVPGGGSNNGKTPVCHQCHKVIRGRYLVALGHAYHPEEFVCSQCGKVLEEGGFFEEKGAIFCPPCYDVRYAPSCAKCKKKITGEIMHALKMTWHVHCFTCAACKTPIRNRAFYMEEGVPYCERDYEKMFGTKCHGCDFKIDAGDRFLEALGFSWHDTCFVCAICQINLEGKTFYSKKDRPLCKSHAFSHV
# T3 sequence (P55196 whole entry, the tested form may be a part): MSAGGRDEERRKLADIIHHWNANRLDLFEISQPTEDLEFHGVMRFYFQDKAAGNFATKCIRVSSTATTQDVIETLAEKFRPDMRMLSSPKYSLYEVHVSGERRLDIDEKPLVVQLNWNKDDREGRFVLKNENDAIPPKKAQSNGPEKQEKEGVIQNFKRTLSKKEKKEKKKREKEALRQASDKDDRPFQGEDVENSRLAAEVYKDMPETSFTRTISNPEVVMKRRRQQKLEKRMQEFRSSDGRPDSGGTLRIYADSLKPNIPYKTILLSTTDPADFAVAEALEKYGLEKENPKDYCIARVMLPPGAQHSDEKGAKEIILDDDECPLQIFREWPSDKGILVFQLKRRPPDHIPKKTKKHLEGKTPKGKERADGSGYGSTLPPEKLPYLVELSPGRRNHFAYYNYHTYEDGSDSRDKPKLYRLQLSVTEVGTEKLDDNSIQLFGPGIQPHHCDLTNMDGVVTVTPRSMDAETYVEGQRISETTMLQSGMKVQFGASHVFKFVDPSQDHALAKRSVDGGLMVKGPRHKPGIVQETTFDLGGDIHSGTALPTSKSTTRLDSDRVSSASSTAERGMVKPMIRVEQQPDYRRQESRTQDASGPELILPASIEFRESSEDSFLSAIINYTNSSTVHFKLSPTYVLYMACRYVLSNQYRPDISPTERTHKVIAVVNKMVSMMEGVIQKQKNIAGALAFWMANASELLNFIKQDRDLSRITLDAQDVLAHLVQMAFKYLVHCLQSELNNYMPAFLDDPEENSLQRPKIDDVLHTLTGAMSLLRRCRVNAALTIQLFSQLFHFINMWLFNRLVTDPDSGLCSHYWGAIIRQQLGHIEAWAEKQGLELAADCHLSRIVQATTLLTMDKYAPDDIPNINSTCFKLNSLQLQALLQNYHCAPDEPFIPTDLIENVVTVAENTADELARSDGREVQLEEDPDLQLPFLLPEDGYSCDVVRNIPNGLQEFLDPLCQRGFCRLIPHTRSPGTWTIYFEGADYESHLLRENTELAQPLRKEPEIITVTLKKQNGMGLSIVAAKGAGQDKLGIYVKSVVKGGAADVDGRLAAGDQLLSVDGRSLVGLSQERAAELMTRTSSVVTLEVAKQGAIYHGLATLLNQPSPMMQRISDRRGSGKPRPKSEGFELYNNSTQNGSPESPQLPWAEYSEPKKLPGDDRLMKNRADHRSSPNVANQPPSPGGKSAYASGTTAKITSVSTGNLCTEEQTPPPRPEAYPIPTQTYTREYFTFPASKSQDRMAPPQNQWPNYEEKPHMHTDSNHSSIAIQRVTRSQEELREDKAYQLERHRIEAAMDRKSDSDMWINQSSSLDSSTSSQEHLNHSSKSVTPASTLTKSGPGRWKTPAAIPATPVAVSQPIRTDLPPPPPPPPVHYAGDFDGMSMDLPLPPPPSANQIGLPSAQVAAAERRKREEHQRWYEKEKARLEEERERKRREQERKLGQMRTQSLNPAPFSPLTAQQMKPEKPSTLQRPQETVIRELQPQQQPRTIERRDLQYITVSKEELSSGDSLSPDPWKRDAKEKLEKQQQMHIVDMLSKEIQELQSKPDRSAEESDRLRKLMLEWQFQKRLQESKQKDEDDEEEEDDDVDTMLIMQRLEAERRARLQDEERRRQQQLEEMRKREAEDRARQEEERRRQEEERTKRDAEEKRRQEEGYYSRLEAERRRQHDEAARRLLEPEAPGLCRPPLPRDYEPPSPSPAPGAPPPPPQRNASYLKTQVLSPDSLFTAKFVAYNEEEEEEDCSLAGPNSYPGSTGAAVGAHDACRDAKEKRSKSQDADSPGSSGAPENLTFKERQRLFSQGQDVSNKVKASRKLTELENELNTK
molecule,measurement,setting,value
ELLQFCRTPNPALKNGQYWV (Biotin-ELLQFCRTPNPALKNGQYWV),Classification,[1],2 (A450 nm 1-2)
same,Classification,"[2]; PDZ ZO-3, PDZ Domain 1",2 (A450 nm 1-2)
same,Classification,"[2]; PDZ ZO-3, PDZ Domain 3",5 (A450 nm of 4 more than 2× repeated)
same,Classification,[3],5 (A450 nm of 4 more than 2× repeated)
VHDAESSDEDGYDWGPATDL (Biotin-VHDAESSDEDGYDWGPATDL) [zona occludens 3 (ZO-3)],Classification,[4],1 (A450 nm 0-1)
CC(C)C[C@H](NC(=O)[C@H](CC(=O)O)NC(=O)[C@H](CO)NC(=O)[C@H](CCC(=O)O)NC(=O)CNC(=O)[C@H](Cc1ccc(O)cc1)NC(=O)[C@H](CC(C)C)NC(=O)[C@H](C)NC(=O)[C@H](CO)NC(=O)[C@H](CO)NC(=O)[C@H](Cc1ccccc1)NC(=O)[C@H](C)NC(=O)[C@H](C)NC(=O)[C@H](Cc1ccc(O)cc1)NC(=O)[C@H](CC(=O)O)NC(=O)[C@H](CC(C)C)NC(=O)[C@H](C)NC(=O)CNC(=O)[C@@H]1CCCN1C(=O)[C@@H](NC(=O)CCCC[C@@H]1SC[C@@H]2NC(=O)N[C@@H]21)C(C)C)C(=O)O [a-actinin 2] (Biotin-VPGALDYAAFSSALYGESDL-OH; C-terminus assumed),Classification,[4],5 (A450 nm of 4 more than 2× repeated)
CC[C@H](C)[C@H](NC(=O)[C@H](Cc1ccc(O)cc1)NC(=O)[C@H](CC(C)C)NC(=O)[C@H](CCC(N)=O)NC(=O)[C@H](Cc1c[nH]cn1)NC(=O)[C@H](CO)NC(=O)[C@H](C)NC(=O)[C@H](CC(C)C)NC(=O)[C@@H](NC(=O)[C@H](CC(=O)O)NC(=O)[C@H](CCSC)NC(=O)[C@H](Cc1ccccc1)NC(=O)[C@@H]1CCCN1C(=O)[C@H](CCCNC(=N)N)NC(=O)[C@@H](NC(=O)[C@H](CC(C)C)NC(=O)[C@H](CC(N)=O)NC(=O)[C@H](CC(=O)O)NC(=O)[C@@H](NC(=O)[C@H](CO)NC(=O)CCCC[C@@H]1SC[C@@H]2NC(=O)N[C@@H]21)[C@@H](C)O)C(C)C)[C@@H](C)O)C(=O)O [presenilin-2] (Biotin-STDNLVRPFMDTLASHQLYI-OH; C-terminus assumed),Classification,[3],3 (A450 nm 2-3)
CC[C@H](C)[C@H](NC(=O)[C@H](Cc1ccc(O)cc1)NC(=O)[C@@H](NC(=O)[C@@H]1CCCN1C(=O)[C@H](CCC(N)=O)NC(=O)[C@H](CCC(=O)O)NC(=O)[C@H](CCC(N)=O)NC(=O)[C@H](C)NC(=O)[C@@H](NC(=O)[C@H](CC(C)C)NC(=O)[C@H](CC(C)C)NC(=O)[C@H](CCCNC(=N)N)NC(=O)[C@H](Cc1ccc(O)cc1)NC(=O)[C@H](CCSC)NC(=O)[C@H](C)NC(=O)[C@H](C)NC(=O)[C@@H]1CCCN1C(=O)[C@H](CCSC)NC(=O)[C@@H](NC(=O)[C@H](CCCCN)NC(=O)CCCC[C@@H]1SC[C@@H]2NC(=O)N[C@@H]21)[C@@H](C)O)[C@@H](C)O)C(C)C)C(=O)O [MINT-1] (Biotin-KTMPAAMYRLLTAQEQPVYI-OH; C-terminus assumed),Classification,[1],3 (A450 nm 2-3)
same,Classification,"[2]; PDZ ZO-3, PDZ Domain 1",2 (A450 nm 1-2)
same,Classification,"[2]; PDZ ZO-3, PDZ Domain 3",1 (A450 nm 0-1)
KTMPAATYRLLTGQEQPVYL (Biotin-KTMPAATYRLLTGQEQPVYL) [MINT-3],Classification,[3],1 (A450 nm 0-1)
KTMPAAMFRLLTGQETPLYI (Biotin-KTMPAAMFRLLTGQETPLYI) [MINT-2],Classification,[1],2 (A450 nm 1-2)
same,Classification,"[2]; PDZ ZO-3, PDZ Domain 3",1 (A450 nm 0-1)
GGGGGSGGGGGSGIESVKI [GLUR2 (glutamate receptor 2-modified)],Classification,[4],1 (A450 nm 0-1)
GPVPGEPAKPKTSAHHATFV (Biotin-GPVPGEPAKPKTSAHHATFV),Classification,[3],1 (A450 nm 0-1)
PYSELNYETSHYPASPDSWV (Biotin-PYSELNYETSHYPASPDSWV) [catenin - delta 2],Classification,"[2]; PDZ ZO-3, PDZ Domain 3",3 (A450 nm 2-3)
A2AA_HUMAN (modified) (Biotin-HDFRRAFKKILARGDRKRIV; not fully specified),Classification,"[2]; PDZ ZO-3, PDZ Domain 2",3 (A450 nm 2-3)

# From US20050282743A1, “Molecular interactions in cells” (Arbor Vita Corporation, priority 2001, published 2005)
